Data on one substance can be found in PMC7530888.

Broadly, the Kd is the equilibrium constant for the complex coming apart. Higher therefore signals weaker binding.

For this assay, the target named is GST-tagged MtbXthA (M. tuberculosis class II AP-endonuclease/3'-5' exonuclease XthA) (M. tuberculosis) (UniProt P96273). Nature of the assay: SPR. In general terms: In SPR one partner is held on a chip, and binding of the other changes the refractive index at the surface.

For “BRCT domain of MtbLigA, His-tagged (from UniProt P9WNV1 1-691) (domain or fragment)”, the Kd was 67.7 nM.
